# Patent publication US10261099B2, “Cancer marker and therapeutic target” (Cancer Research Technology Ltd., priority 2007, dated 2019)
# “Also recorded” adds a separate entry of the source.
# T1: CCR4 (Homo sapiens, UniProt P51679)
# T1 construct: The cell line C-41 expressed cell surface CCR4 in a constitutive manner; host or cells: C-41 cervical cancer cell line
# T1 sequence (P51679 1-360): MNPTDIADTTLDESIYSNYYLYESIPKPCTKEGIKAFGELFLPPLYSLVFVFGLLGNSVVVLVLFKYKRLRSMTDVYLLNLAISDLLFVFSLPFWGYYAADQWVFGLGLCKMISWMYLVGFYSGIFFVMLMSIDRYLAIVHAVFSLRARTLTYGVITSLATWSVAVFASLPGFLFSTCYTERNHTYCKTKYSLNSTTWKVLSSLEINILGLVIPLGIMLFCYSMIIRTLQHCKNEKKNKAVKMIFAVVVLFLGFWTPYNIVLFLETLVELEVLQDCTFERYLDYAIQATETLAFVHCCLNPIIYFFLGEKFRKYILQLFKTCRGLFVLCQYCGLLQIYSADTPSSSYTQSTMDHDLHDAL
# Columns and labels:
# [1] = system: CCR4 positive and negative cells; experiment: CCR4 expression of CCR4 positive and negative cells exposed to cytokines; format: cell-based; conditions: cytokines of the cervical microenvironment
# From the text: CCR4 positive and negative cells were exposed to a number of cytokines (TNF-α, TGF-β, IFN-γ, IL-4 and IL-10) known to be present in the cervical microenvironment and for which receptors were likely to be present on the tumour cells.
# [2] = system: C41 cervical cancer cell line; experiment: CCR4 expression on C41 cells after cytokine stimulation (FACS); format: cell-based, human; conditions: 20 ng/ml, 24 h, versus unstimulated cells
# Experimental: Dashed line: isotype control; grey line CCR4 expression; bold line; CCR4 expression after cytokine stimulation.
# The most common cytokines present in a tumour are IL-10, TGF-β, FGF, TNF-α. The C41 cervical cancer cell line was stimulated in culture with different cytokines (IL-10, TNF-α, TGF-β, FGF; 20 ng/ml) for 24 h. The expression of CCR4 was then determined by FACS analysis.
# [3] = biological target: T1, CCR4; experiment: CCR4 expression/internalization on C-41 cells after ligand stimulation (FACS); format: cell-based; conditions: stimulation with 100 ng/ml ligand
# Experimental: Values are the mean±SD of 10 determinations,*P <0.05, **P<0.01.
# (§1) The cervical cancer cell line C-41 (ATCC, Rockville, Md, USA) was cultured in DMEM medium supplemented with 10% FCS. […] Proliferation and migration were assessed using methods described previously.
# To investigate the biological significance of CCR4 expression on cervical cancer cells a number of cervical cancer cell lines (CaSki, Me180, Hela-Ohio, Hela-S3, Siha, C33A, C41-1) were screened for CCR4 expression.
# [4] = system: C-41 cervical cancer cell line; experiment: trans-well migration assay of C-41 cells towards CCR4 ligands; format: cell-based, human; conditions: for chemotactic response of C-41 cells: trans-well migration assay
# Experimental: as §1
# To investigate the biological significance of CCR4 expression on cervical cancer cells a number of cervical cancer cell lines (CaSki, Me180, Hela-Ohio, Hela-S3, Siha, C33A, C41-1) were screened for CCR4 expression. The cell line C-41 expressed cell surface CCR4 in a constitutive manner (FIG. 6A). Using FACS analysis it was shown that C-41 cells expressed cell surface CCR4. […] Following stimulation with 100 ng/ml CCL22, cell surface CCR4 protein was internalized on C-41 cells after 2 hours and returned back to the surface after 3 hours (FIG. 6B).
# [5] = system: C-41 cervical cancer cell line; experiment: C-41 growth/proliferation under suboptimal conditions after ligand stimulation; format: cell-based, human; conditions: 6 days
molecule,measurement,setting,value
TGF-β,influence on CCR4 expression,[1],None of these influenced CCR4 expression
same,CCR4 expression on C41 cells after cytokine stimulation,[2],upregulated in terms of percentage of positive cells
TNF-α,influence on CCR4 expression,[1],None of these influenced CCR4 expression
"IL-10: cytokine commonly present in a tumour, used to stimulate C41 cells (protein, UniProt P22301 19-178, looked up) Interleukin-10: SPGQGTQSENSCTHFPGNLPNMLRDLRDAFSRVKTFFQMKDQLDNLLLKESLLEDFKGYLGCQALSEMIQFYLEEVMPQAENQDPDIKAHVNSLGENLKTLRLRLRRCHRFLPCENKSKAVEQVKNAFNKLQEKGIYKAMSEFDIFINYIEAYMTMKIRN",influence on CCR4 expression,[1],None of these influenced CCR4 expression
same,CCR4 expression on C41 cells after cytokine stimulation,[2],upregulated in terms of percentage of positive cells
"CCL22: chemokine ligand of CCR4 (PeproTech) used to stimulate C-41 cells (protein, UniProt O00626 25-93, looked up) C-C motif chemokine 22: GPYGANMEDSVCCRDYVRYRLPLRVVKHFYWTSDSCPRPGVVLLTFRDKEICADPRVPWVKMILNKLSQ",cell surface CCR4 protein internalized on C-41 cells after,[3],2 h
same,cell surface CCR4 returned back to the surface after,[3],3 h
same,chemotactic response of C-41 cells,[4],typical bell-shaped chemotactic response
same,C-41 cell growth / proliferation,[5]; 1 ng/ml,significant increased growth; also recorded: simulated C-41 cell growth
same,C-41 cell growth / proliferation,[5]; 10 ng/ml,not
same,C-41 cell growth / proliferation,[5]; 100 ng/ml,significant increased growth; also recorded: simulated C-41 cell growth
"CCL17: chemokine ligand of CCR4 (PeproTech) used to stimulate C-41 cells (protein, UniProt Q92583 24-94, looked up) C-C motif chemokine 17: ARGTNVGRECCLEYFKGAIPLRKLKTWYQTSEDCSRDAIVFVTVQGRAICSDPNNKRVKNAVKYLQSLERS",cell surface CCR4 returned back to the surface after,[3],3 h
same,migration of C-41 cells,[4]; 10 ng/ml,induced significant migration
same,migration of C-41 cells,[4]; 100 ng/ml,induced significant migration
same,migration of C-41 cells,[4]; 1000 ng/ml,induced significant migration
same,chemotactic response of C-41 cells,[4],typical bell-shaped chemotactic response
same,C-41 cell growth / proliferation,[5]; 1 ng/ml,not
same,C-41 cell growth / proliferation,[5]; 10 ng/ml,significant growth increase; also recorded: increased proliferation
same,C-41 cell growth / proliferation,[5]; 100 ng/ml,significant growth increase; also recorded: increased proliferation
"IL-4: cytokine known to be present in the cervical microenvironment (protein, UniProt P05112 25-153, looked up) Interleukin-4: HKCDITLQEIIKTLNSLTEQKTLCTELTVTDIFAASKNTTEKETFCRAATVLRQFYSHHEKDTRCLGATAQQFHRHKQLIRFLKRLDRNLWGLAGLNSCPVKEANQSTLENFLERLKTIMREKYSKCSS",influence on CCR4 expression,[1],None of these influenced CCR4 expression
"IFN-γ: cytokine known to be present in the cervical microenvironment (protein, UniProt P01579 24-161, looked up) Interferon gamma: QDPYVKEAENLKKYFNAGHSDVADNGTLFLGILKNWKEESDRKIMQSQIVSFYFKLFKNFKDDQSIQKSVETIKEDMNVKFFNSNKKKRDDFEKLTNYSVTDLNVQRKAIHELIQVMAELSPAAKTGKRKRSQMLFRG",influence on CCR4 expression,[1],None of these influenced CCR4 expression
